The values below come from patent US20130263331A1.

The target of test [1] is putative receptor(s) on brush border membrane vesicles (BBMV) prepared from midguts of third instars of the western corn rootworm (Diabrotica virgifera virgifera LeConte) (Diabrotica virgifera virgifera).
Test [2] shares this target. Briefly: Homologous competition: unlabeled Cry3Aa (0-2500 nM) against 5 nM 125I-Cry3Aa on 0.1 mg/ml BBMV; value at about 2500 nM competitor.

What is called Kd is the concentration at which binding is half-saturated. Consider “Cry3Aa trypsin core (from UniProt P0A379 159-644)”, for which, in test [1], the Kd is 0.024 µM and the binding site concentration Bmax (pmole/mg BBMV) is 22. Besides, the percent of bound 125I-Cry3Aa displaced in test [2] amounted to 60%.
In test [1], “Full-length Cry6Aa1 (from UniProt Q45757 1-475)” came in with a Kd of 0.0101 µM and a binding site concentration Bmax (pmole/mg BBMV) of 0.66.
